Reference: article PMC12257531, “Chaperone-Mediated Regulation of Tau Phase Separation, Fibrillation, and Toxicity” (Journal of the American Chemical Society, 2025)

Target: Tau441 (recombinant full-length Tau protein), monomeric (UniProt P10636-8 1-441)
Experiment: cell-based or functional assay

Sequence of Tau441 (recombinant full-length Tau protein), monomeric (P10636 other isoform, or with tags, fused parts or gaps): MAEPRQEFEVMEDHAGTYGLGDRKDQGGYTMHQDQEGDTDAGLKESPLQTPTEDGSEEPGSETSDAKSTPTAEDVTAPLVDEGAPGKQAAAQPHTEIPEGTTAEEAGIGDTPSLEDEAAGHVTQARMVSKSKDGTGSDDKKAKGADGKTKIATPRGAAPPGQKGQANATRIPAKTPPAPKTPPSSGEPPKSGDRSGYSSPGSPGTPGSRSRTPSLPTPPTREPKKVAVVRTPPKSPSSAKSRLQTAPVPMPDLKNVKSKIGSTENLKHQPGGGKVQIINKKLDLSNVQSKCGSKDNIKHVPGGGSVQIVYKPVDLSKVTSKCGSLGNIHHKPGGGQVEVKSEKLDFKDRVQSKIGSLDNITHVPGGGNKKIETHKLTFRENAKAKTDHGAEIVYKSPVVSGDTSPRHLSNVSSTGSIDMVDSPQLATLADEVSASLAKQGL

B1: Bri2 BRICHOS domain R221E (residues 113-231 of Bri2), oligomeric fraction (domain or fragment, human)
chain: GSQTIEENIKIFEEEEVEFISVPVPEFADSDPANIVHDFNKKLTAYLDLNLDKCYVIPLNTSIVMPPRNLLELLINIKAGTYLPQSYLIHEHMVITDRIENIDHLGFFIYELCHDKETYKL
turbidity (absorbance at 350 nm) of 20 uM Tau441 with 8% PEG8000 and sub- to superstoichiometric Bri2 BRICHOS, relative to Tau441 droplets alone: 2 fold
